Test results: publication PMC11004729

Assays:
FXR1 (GST-FXR1) [1] = target: T1, FXR1 (GST-FXR1) (Homo sapiens, UniProt P51114 1-621); test: EMSA
HuR (GST-HuR) = HuR (GST-HuR) (UniProt Q15717 1-326); test: EMSA
FXR1 (GST-FXR1) [2] = target: T1, FXR1 (GST-FXR1); test: EMSA; remark: listed apart in the source
FXR1 (GST-FXR1) [3] = target: T1, FXR1 (GST-FXR1); test: competition EMSA

T1 sequence (P51114 whole entry): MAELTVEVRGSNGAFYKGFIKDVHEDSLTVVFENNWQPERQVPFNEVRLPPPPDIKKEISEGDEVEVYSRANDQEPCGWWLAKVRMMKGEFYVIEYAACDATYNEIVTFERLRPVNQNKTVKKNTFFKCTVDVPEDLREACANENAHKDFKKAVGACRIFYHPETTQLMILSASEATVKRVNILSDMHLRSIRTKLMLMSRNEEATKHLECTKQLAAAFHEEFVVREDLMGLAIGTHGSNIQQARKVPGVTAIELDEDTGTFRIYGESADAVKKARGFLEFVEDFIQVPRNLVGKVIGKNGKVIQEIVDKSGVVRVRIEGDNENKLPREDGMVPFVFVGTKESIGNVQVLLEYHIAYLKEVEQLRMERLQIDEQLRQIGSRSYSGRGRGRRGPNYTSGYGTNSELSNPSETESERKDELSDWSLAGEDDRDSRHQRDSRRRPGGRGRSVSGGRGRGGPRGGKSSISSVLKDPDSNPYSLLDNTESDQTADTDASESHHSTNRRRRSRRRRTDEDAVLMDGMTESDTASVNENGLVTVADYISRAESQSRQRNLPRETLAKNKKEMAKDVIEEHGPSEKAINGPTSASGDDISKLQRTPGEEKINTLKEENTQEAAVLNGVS
HuR (GST-HuR), sequence (Q15717 whole entry): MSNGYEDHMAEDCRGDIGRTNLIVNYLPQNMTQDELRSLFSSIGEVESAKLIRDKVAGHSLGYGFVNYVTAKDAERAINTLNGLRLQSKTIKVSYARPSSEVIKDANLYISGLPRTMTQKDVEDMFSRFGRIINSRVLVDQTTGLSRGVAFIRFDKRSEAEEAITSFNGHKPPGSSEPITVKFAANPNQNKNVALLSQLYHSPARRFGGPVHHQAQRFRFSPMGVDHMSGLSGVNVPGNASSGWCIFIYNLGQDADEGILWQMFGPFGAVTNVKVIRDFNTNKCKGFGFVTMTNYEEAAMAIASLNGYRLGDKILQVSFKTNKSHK

B1: TNFα 3'UTR 50-mer (probe A) (ssRNA)
RNA: CUUGUGAUUAUUUAUUAUUUAUUUAUUAUUUAUUUAUUUACAGAGAUGAA
B1: binds (FXR1 (GST-FXR1) [1]); binds (HuR (GST-HuR)).

B2: AUUUA monomer (ssRNA)
RNA: AUUUA
B2: no binding (FXR1 (GST-FXR1) [2]).

B3: (UUAUUUAUU)3 (probe C) (ssRNA)
RNA: UUAUUUAUUUUAUUUAUUUUAUUUAUU
B3: binds (FXR1 (GST-FXR1) [3]).

B4: (AUUUA)5 (probe B) (ssRNA)
RNA: AUUUAAUUUAAUUUAAUUUAAUUUA
B4: binds (FXR1 (GST-FXR1) [3]).
